For assay [1], the target named is Factor X (Homo sapiens (Human)) (UniProt P00742).
A further assay concerns the target T1, Mesyl-dFPR-ACC.
T1 sequence (peptide, N-terminal mesyl; D-Phe at position 1 (dF); C-terminal ACC fluorophore): FPR

Data on 4 molecules can be found in US20090291890A1 (published 2009).

Sequence of Factor X (Homo sapiens (Human)) (P00742 41-488 limits assumed): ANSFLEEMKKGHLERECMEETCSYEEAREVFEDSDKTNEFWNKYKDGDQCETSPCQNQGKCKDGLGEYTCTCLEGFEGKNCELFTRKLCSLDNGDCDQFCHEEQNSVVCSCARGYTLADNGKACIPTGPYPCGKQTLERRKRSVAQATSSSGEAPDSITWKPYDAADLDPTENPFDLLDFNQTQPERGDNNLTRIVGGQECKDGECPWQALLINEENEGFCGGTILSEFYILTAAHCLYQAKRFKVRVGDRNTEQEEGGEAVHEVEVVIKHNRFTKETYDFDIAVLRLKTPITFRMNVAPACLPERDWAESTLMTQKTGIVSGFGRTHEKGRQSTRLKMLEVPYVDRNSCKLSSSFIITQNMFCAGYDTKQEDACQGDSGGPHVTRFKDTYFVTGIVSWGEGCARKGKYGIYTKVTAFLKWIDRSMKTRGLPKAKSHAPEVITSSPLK

B1: T239I/Q286R/H373F-FVIIa (enzyme)
chain: ANAFLEELRPGSLERECKEEQCSFEEAREIFKDAERTKLFWISYSDGDQCASSPCQNGGSCKDQLQSYICFCLPAFEGRNCETHKDDQLICVNENGGCEQYCSDHTGTKRSCRCHEGYSLLADGVSCTPTVEYPCGKIPILEKRNASKPQGRIVGGKVCPKGECPWQVLLLVNGAQLCGGTLINTIWVVSAAHCFDKIKNWRNLIAVLGEHDLSEHDGDEQSRRVAQVIIPSTYVPGTINHDIALLRLHQPVVLTDHVVPLCLPERTFSERTLAFVRFSLVSGWGRLLDRGATALELMVLNVPRLMTQDCLQQSRKVGDSPNITEYMFCAGYSDGSKDSCKGDSGGPHATHYRGTWYLTGIVSWGQGCATVGFFGVYTRVSQYIEWLQKLMRSEPRPGVLLRAPFP
Consider B1, for which the kcat/KM (M^-1s^-1), TF-dependent assay in assay [1] stood at 6.18e+07 M⁻¹ s⁻¹. This molecule gave an Activity (µmol/sec/µmol), specific activity for mesyl-dFPR-ACC (µmol/sec/µmol) with Mesyl-dFPR-ACC of 1.24.

B2: T239I/Q286R/M298Q/H373F-FVIIa (enzyme)
chain: ANAFLEELRPGSLERECKEEQCSFEEAREIFKDAERTKLFWISYSDGDQCASSPCQNGGSCKDQLQSYICFCLPAFEGRNCETHKDDQLICVNENGGCEQYCSDHTGTKRSCRCHEGYSLLADGVSCTPTVEYPCGKIPILEKRNASKPQGRIVGGKVCPKGECPWQVLLLVNGAQLCGGTLINTIWVVSAAHCFDKIKNWRNLIAVLGEHDLSEHDGDEQSRRVAQVIIPSTYVPGTINHDIALLRLHQPVVLTDHVVPLCLPERTFSERTLAFVRFSLVSGWGRLLDRGATALELQVLNVPRLMTQDCLQQSRKVGDSPNITEYMFCAGYSDGSKDSCKGDSGGPHATHYRGTWYLTGIVSWGQGCATVGFFGVYTRVSQYIEWLQKLMRSEPRPGVLLRAPFP
Take B2: in assay [1], the kcat/KM (M^-1s^-1), TF-dependent assay is 1.08e+08 M⁻¹ s⁻¹ and the kcat/KM, TF-independent assay amounted to 13.1 M⁻¹ s⁻¹. This molecule also came in with an Activity (µmol/sec/µmol), specific activity for mesyl-dFPR-ACC (µmol/sec/µmol) with Mesyl-dFPR-ACC of 1.59.

B3: S222A/H257S/Q286R/M298Q-FVIIa (enzyme)
chain: ANAFLEELRPGSLERECKEEQCSFEEAREIFKDAERTKLFWISYSDGDQCASSPCQNGGSCKDQLQSYICFCLPAFEGRNCETHKDDQLICVNENGGCEQYCSDHTGTKRSCRCHEGYSLLADGVSCTPTVEYPCGKIPILEKRNASKPQGRIVGGKVCPKGECPWQVLLLVNGAQLCGGTLINTIWVVSAAHCFDKIKNWRNLIAVLGEHDLSEHDGDEQARRVAQVIIPSTYVPGTTNHDIALLRLHQPVVLTDSVVPLCLPERTFSERTLAFVRFSLVSGWGRLLDRGATALELQVLNVPRLMTQDCLQQSRKVGDSPNITEYMFCAGYSDGSKDSCKGDSGGPHATHYRGTWYLTGIVSWGQGCATVGHFGVYTRVSQYIEWLQKLMRSEPRPGVLLRAPFP
Regarding B3, the kcat/KM (M^-1s^-1), TF-dependent assay in assay [1] was 1.58e+08 M⁻¹ s⁻¹. In addition, in the assay with Mesyl-dFPR-ACC, the Activity (µmol/sec/µmol), specific activity for mesyl-dFPR-ACC (µmol/sec/µmol) was 1.77.

B4: H257S/Q286R/M298Q-FVIIa (enzyme)
chain: ANAFLEELRPGSLERECKEEQCSFEEAREIFKDAERTKLFWISYSDGDQCASSPCQNGGSCKDQLQSYICFCLPAFEGRNCETHKDDQLICVNENGGCEQYCSDHTGTKRSCRCHEGYSLLADGVSCTPTVEYPCGKIPILEKRNASKPQGRIVGGKVCPKGECPWQVLLLVNGAQLCGGTLINTIWVVSAAHCFDKIKNWRNLIAVLGEHDLSEHDGDEQSRRVAQVIIPSTYVPGTTNHDIALLRLHQPVVLTDSVVPLCLPERTFSERTLAFVRFSLVSGWGRLLDRGATALELQVLNVPRLMTQDCLQQSRKVGDSPNITEYMFCAGYSDGSKDSCKGDSGGPHATHYRGTWYLTGIVSWGQGCATVGHFGVYTRVSQYIEWLQKLMRSEPRPGVLLRAPFP
Regarding B4, in assay [1], the kcat/KM (M^-1s^-1), TF-dependent assay came out at 1.4e+08 M⁻¹ s⁻¹ and the kcat/KM, TF-independent assay is 27.4 M⁻¹ s⁻¹. In the assay with Mesyl-dFPR-ACC, the Activity (µmol/sec/µmol), specific activity for mesyl-dFPR-ACC (µmol/sec/µmol) worked out at 1.85.
